Data reported in publication doi:10.1101/2020.04.29.069500.

Target: first Tudor domain of PHF20L1 (PHF20L1 Tudor1) (UniProt A8MW92)
Assay: NMR titration

Chain of UniProt A8MW92 (A8MW92 5-70): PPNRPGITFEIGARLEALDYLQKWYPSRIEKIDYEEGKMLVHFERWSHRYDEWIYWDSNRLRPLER

- Kd: 670 µM
Substance: K142 mono-methylated (K142me1) DNMT1 peptide
